B1: EPB41L3 (parent)
chain: FRFAPNHTKELEDKVIELHKSHRG

Variants of: B1
Experiment: protein stability index of a GFP-peptide fusion (GPS, HEK-293T) (PSI 1-6); higher = more stable
Conditions: c terminus: a fixed tail appended
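Also: lentivirally expressed fusions sorted by FACS into six bins by GFP to DsRed ratio, PSI derived from sequencing read proportions per bin multiplied by bin number.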

Protein stability index of substitutions, site by site:
K20: G 2.22 | Y 2.95 | T 2.12 | P 2.64 | E 2.84 | A 2.29 | I 2.12 | H 2.44 | F 1.55 | S 1.67 | W 1.54 | C 2.09 | Q 1.29 | R 1.39 | N 2.57 | V 2.71 | M 1.81 | L 2.81 | D 1.96
F3: V 4.42 | W 2.97 | T 3.99 | Y 2.28
N6: K 1.92 | M 1.83 | P 2.23 | Q 2.02 | C 1.97 | R 2.03 | H 2.54 | F 1.74 | S 2.17 | G 2.56 | I 1.55 | E 3.17 | T 2.08 | V 1.53 | L 2.37 | D 2
P5: F 1.24 | L 2.75 | R 2.15 | D 3.38 | Q 2.07 | Y 1.24 | V 2.37 | G 1.98 | E 3.49 | I 2.63 | T 2.44 | K 3.47 | C 2.4 | A 2.73 | M 2.31 | H 2.31 | S 1.92 | N 2.24
E10: Q 1.68 | A 1.97 | L 1.9 | K 2.59 | D 1.9 | T 1.84 | Y 1.97 | S 2.07 | W 1.21 | M 1.69 | I 2.07 | C 1.46 | N 1.41 | H 1.81 | F 1.22 | G 2.04 | P 1.63 | V 1.73 | R 1.95
L18: W 1.78 | Q 2.53 | C 2.9 | P 1.89 | N 2.01 | A 3.07 | S 2.51 | E 2.43 | R 2.75 | G 2.02 | Y 1.36 | V 1.93 | M 3.06 | I 2.35 | D 3.17 | H 1.82 | K 2.6 | T 3.79 | F 1.73
T8: V 1.98 | I 2.49 | K 2.39 | W 1.84 | L 1.82 | F 2.3 | E 2.78 | P 1.75 | S 1.92 | M 2.21 | C 2.02 | Y 2.05 | D 2.01 | R 1.92 | H 1.74 | N 2.17 | A 2.11 | G 1.86
H7: P 2.1 | I 2.09 | N 2.16 | Q 2.28 | R 2.11 | F 1.73 | V 1.85 | G 2.42 | A 2.83 | S 1.93 | T 1.91 | C 1.47 | Y 2.07 | M 2.3 | D 2.96 | W 1.6 | K 1.88 | E 1.96 | L 1.62
K9: E 2.21 | Q 2.11 | C 2.44 | L 1.47 | D 1.82 | V 2.24 | P 2.15 | R 1.7 | F 2.14 | T 1.37 | Y 1.99 | N 2.39 | S 2.88 | H 2.06 | M 1.77 | I 2.56 | G 2.04 | A 1.71 | W 2.34
D13: R 2.77 | G 3.4 | Q 3.39 | K 1.86 | P 1.78 | E 2.8 | H 1.89 | A 1.82 | T 1.67 | V 1 | C 2.65 | S 2.14 | F 1.52 | N 2.79 | L 2.2 | I 2.9 | M 1.9 | Y 1.95
S21: M 2.14 | L 1.83 | H 1.71 | I 2.25 | R 2.1 | G 2.42 | K 1.74 | Q 2.59 | E 2.9 | C 1.78 | F 1.78 | A 2.47 | T 2.47 | D 2.56 | N 2.88
L11: R 1.92 | T 2.21 | N 1.65 | I 2.46 | Y 2.05 | E 1.97 | G 2.89 | V 2.25 | W 1.99 | S 1.72 | F 2.48 | Q 2.25 | P 1.87 | K 2.53 | M 1.83 | D 2.53 | A 1.54 | H 2.29 | C 2.18
H19: M 2.05 | R 2.19 | G 1.88 | C 2.03 | V 1.89 | Y 1.88 | A 2.11 | T 1.81 | E 2.72 | P 2.72 | F 1.95 | D 2.07 | Q 2.66 | S 2.11 | W 1.53 | I 1.83 | L 2.12 | K 1.99
I16: T 2.27 | L 2.01 | G 1.98 | P 2.76 | Y 2.43 | K 2.1 | R 1.81 | W 2.13 | V 2.71 | S 2.11 | H 2.09 | M 2.1 | C 2.14 | D 3.22 | A 2.46 | Q 2.12 | F 1.77 | N 2.42 | E 2.95
V15: F 2.46 | E 2.23 | H 2.38 | Q 2.54 | I 2.75 | N 2.27 | G 2.55 | D 2.92 | T 2.47 | S 2.44 | M 2.87 | Y 1.99 | A 2.38 | L 2.69 | K 2.19 | P 2.33 | R 1.95 | C 2.24 | W 1.93
A4: M 2.65 | R 3.33 | V 1.82 | P 2.98 | Q 2.18 | I 2.24 | G 3.08 | D 3.9 | K 3.06 | H 2.42 | F 3.19 | N 3.77 | E 2.87 | C 2.2 | L 2.82 | T 2.24 | Y 2.88 | S 3.9 | W 2.41
K14: Y 2.44 | W 1.96 | N 2.25 | I 2.66 | G 2.48 | H 2.74 | M 2.01 | L 1.78 | V 2.2 | R 1.97 | S 1.97 | A 2.34 | C 1.89 | P 1.86 | T 2.31 | Q 1.56 | D 2.32 | E 2.53 | F 1.8
E12: A 1.99 | Y 1.22 | T 1.36 | P 2.34 | R 1.56 | V 1.45 | D 1.83 | H 2.34 | I 1.27 | L 1.97 | M 1.75 | W 2.97 | F 2.17 | G 2.33 | C 1.83 | Q 2.09 | S 2.41 | N 1.74 | K 1.96
E17: Q 1.55 | T 1.86 | V 2.55 | L 1.67 | D 2.18 | P 2.43 | K 1.72 | S 2.12 | N 2.29 | Y 2.66 | H 2.04 | F 2.34 | C 1.95 | W 2.18 | M 2.5 | G 1.76 | A 1.74 | I 2.21

Reference: the supplement of paper PMC10567573
